B1: SLAM peptide (cytoplasmic tail of SLAM, 77 aa, singly phosphorylated) (peptide)
peptide: QLRRRGKTNHYQTTVEKKSLTIYAQVQKPGPLQKKLDSFPAQDPCTTIYVAATEPVPESVQETNSITVYASVTLPES
modifications: biotin on the N-terminus; phosphotyrosine in the ITSM (position 327 in the native sequence)
notes: cytoplasmic tail of SLAM, 77 aa; only the last tyrosine (327) is phosphorylated; source: synthetic peptide (Peptide Protein Research)
B2: Human SHP-1 with an N-terminal 6x His tag (enzyme)
chain: not shown

Test [1] has as its target B2. As to the kind of experiment: SPR; biotinylated peptide on streptavidin-coupled CM5 chip (25-100 RU), SHP-1 injected 45 s at 10 uL/min; Biacore T200; 37°C; 10 mM HEPES pH 7.4, 150 mM NaCl, 3 mM EDTA, 0.05% Tween 20, 1 mM dithiothreitol; constants from the fit of the extended MPDPDE model. The following applies: both partners purified. For orientation: Surface plasmon resonance follows binding to a sensor surface in real time, without labels.

Test [2] concerns the target B1. The test can be described thus: cell-based or functional assay.

The term Kd denotes the concentration at which binding is half-saturated. A high value points to lower affinity. What is called koff is the first-order rate constant of dissociation. One may read the kon as the rate constant with which the complex forms. For B1, in test [1], the Kd was 130 µM, the koff is 1.7 s⁻¹ and the association rate constant (kon) worked out at 20000 M⁻¹ s⁻¹.

With B2, the “ratio kcat(tethered)/kcat(solution) from the SPR assay (allosteric activation of SHP-1)” value in test [2] turned out to be 6.2 fold.

Values taken from PMC8204385 (Biophysical Journal, 2021).
